# Laboratory results: patent publication US20260256936A1, “BIOACTIVE CONJUGATES, PREPARATION METHOD AND USE THEREOF” (priority 2023, published 2026)
# Like-named read-outs stand apart in the source and are kept apart here.
# T1: B7H3 on B7H3-expressing cells (NCI-H358, NCI-H1048) (human, UniProt Q5ZPR3 29-534)
# T1 sequence (looked up): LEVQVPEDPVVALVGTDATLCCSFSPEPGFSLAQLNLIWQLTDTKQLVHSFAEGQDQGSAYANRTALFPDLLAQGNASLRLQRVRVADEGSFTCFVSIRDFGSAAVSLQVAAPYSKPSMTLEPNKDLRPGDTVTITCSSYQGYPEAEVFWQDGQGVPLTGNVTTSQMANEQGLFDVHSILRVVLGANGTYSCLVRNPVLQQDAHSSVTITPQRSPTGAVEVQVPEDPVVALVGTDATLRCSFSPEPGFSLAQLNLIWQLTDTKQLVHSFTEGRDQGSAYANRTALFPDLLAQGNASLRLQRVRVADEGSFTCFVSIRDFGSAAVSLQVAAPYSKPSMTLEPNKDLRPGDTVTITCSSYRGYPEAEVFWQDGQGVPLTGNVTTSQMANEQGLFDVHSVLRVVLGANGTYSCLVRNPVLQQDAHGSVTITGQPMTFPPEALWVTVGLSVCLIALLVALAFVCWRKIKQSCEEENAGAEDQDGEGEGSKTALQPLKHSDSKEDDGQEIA
# T2: CLL1 on CLL1-expressing cells (U937, HL60) (human, UniProt Q5QGZ9 1-265)
# T2 sequence (looked up): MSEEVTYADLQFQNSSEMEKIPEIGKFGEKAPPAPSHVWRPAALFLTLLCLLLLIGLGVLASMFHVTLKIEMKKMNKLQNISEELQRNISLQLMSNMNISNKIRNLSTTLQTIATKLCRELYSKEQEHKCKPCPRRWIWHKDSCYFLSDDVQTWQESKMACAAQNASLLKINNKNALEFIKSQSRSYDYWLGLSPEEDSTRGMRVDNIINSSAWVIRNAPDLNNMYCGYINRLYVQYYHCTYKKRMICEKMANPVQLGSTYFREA
# B1: ADC3-B (antibody, human IgG1, kappa, V domains shown)
# VH: QVQLVQSGAEVKKPGSSVKVSCKASGYTFTNYVMHWVRQAPGQGLEWMGYINPYNDDVKYNEKFKGRVTITADESTSTAYMELSSLRSEDTAVYYCARWGYYGSPLYYFDYWGQGTLVTVSS
# VL: EIVLTQSPATLSLSPGERATLSCRASSRLIYMHWYQQKPGQAPRPLIYATSNLASGIPARFSGSGSGTDFTLTISSLEPEDFAVYYCQQWNSNPPTFGQGTKVEIKR
# modifications: conjugator-linker-payload on cysteine thiols after TCEP reduction; positions not given
# B2: ADC3-A (antibody, human IgG1, kappa, V domains shown)
# VH: EVQLVQSGAEVKKPGASVKVSCKASGYSFTDYYMHWVRQAPGQGLEWIGRINPYAGAAFYSQNFKDRVTLTVDTSTSTAYLELSSLRSEDTAVYYCAIERGADLEGYAMDYWGQGTLVTVSS
# VL: DIQMTQSPSSLSASVGDRVTITCRASQSVSTSSYNYMHWYQQKPGKPPKLLIKYASNLESGVPSRFSGSGSGTDFTLTISSLQPEDFATYYCQHSWEIPLTFGQGTKVEIKR
# modifications: conjugator-linker-payload on cysteine thiols after TCEP reduction; positions not given
# B3: ADC3-15 (antibody, human IgG1, kappa, V domains shown)
# VH: B2 VH
# VL: B2 VL
# modifications: conjugator-linker-payload on cysteine thiols after TCEP reduction; positions not given
# B4: ADC3-6 (antibody, human IgG1, kappa, V domains shown)
# VH: B2 VH
# VL: B2 VL
# modifications: conjugator-linker-payload on cysteine thiols after TCEP reduction; positions not given
# Experiments:
# Assay in all cases: cell-based or functional assay
# [1] = target: T1, B7H3 on B7H3-expressing cells …
# [2] = target: T2, CLL1 on CLL1-expressing cells (U937, …)
# [3] = target: T2, CLL1 on CLL1-expressing cells (U937, …); remark: listed apart in the source
# [4] = target: T2, CLL1 on CLL1-expressing cells (U937, …); remark: listed apart in the source
# [5] = target: T2, CLL1 on CLL1-expressing cells (U937, …); remark: listed apart in the source
# [6] = target: T2, CLL1 on CLL1-expressing cells (U937, …); remark: listed apart in the source
binder,measurement,setting,value
B1,"EC50 (nM) direct cellular killing, NCI-H358",[1],0.1 nM
same,"EC50 (nM) direct cellular killing, NCI-H1048",[1],0.2 nM
B2,"EC50 (nM) direct cellular killing, HL60",[2],4.8 nM
same,"EC50 (nM) direct cellular killing, HL60",[3],10.9 nM
same,"EC50 (nM) direct cellular killing, U937",[3],0.7 nM
same,"EC50 (nM) direct cellular killing, HL60",[4],6.3 nM
same,"EC50 (nM) direct cellular killing, U937",[4],0.8 nM
same,"EC50 (nM) direct cellular killing, HL60",[5],1.4 nM
same,"EC50 (nM) direct cellular killing, U937",[5],0.7 nM
same,"EC50 (nM) direct cellular killing, HL60",[6],6.5 nM
B3,"EC50 (nM) direct cellular killing, HL60",[3],6.5 nM
same,"EC50 (nM) direct cellular killing, U937",[3],0.3 nM
B4,"EC50 (nM) direct cellular killing, HL60",[6],0.4 nM
same,"EC50 (nM) direct cellular killing, U937",[6],0.6 nM
